The values below come from US20200181255A1 (Amgen, published 2020).

Experiment [1] has as its target T1, recombinant human IL-23 (human, UniProt Q9NPF7 20-189; P29460 23-328).
T1 sequence 1: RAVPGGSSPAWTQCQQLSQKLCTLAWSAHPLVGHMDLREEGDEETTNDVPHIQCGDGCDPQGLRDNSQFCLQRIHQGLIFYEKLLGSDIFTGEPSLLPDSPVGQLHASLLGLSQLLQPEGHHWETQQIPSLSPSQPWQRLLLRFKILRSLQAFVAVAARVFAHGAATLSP
T1 sequence 2: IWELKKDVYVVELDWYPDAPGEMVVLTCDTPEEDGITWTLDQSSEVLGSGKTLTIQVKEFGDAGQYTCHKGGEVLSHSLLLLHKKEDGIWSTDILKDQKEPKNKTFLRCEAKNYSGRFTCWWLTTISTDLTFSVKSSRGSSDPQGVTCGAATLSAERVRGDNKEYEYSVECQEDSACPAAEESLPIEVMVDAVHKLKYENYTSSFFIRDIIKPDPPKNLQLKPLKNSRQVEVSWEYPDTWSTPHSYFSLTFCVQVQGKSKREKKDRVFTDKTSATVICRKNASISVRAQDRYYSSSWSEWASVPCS
The experiment is described as follows: cell-based or functional assay.

The target of experiment [2] is T2, recombinant cynomolgous IL-23 (cynomolgous).
T2 chain 1: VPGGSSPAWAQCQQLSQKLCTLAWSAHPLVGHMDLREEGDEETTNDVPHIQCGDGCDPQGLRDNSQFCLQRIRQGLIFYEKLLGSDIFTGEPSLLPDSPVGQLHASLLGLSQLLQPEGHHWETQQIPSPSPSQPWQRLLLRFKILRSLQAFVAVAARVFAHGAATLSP
T2 chain 2: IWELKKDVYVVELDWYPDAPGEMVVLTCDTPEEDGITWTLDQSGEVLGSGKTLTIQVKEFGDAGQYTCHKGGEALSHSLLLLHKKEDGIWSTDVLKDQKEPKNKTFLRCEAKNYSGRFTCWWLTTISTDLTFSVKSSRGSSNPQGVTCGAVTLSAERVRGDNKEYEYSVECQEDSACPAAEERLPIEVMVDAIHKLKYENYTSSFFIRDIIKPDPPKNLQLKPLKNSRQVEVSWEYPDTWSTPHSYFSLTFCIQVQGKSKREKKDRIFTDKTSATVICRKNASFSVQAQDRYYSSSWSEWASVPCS
The experiment is described as follows: cell-based or functional assay.

In experiment [3] the target is T1, recombinant human IL-23. Nature of the experiment: cell-based or functional assay. This is another data set of the same source.
In experiment [4] the target is T3, Native human IL-23 (human, UniProt Q9NPF7 20-189; P29460 23-328).
T3 sequence 1: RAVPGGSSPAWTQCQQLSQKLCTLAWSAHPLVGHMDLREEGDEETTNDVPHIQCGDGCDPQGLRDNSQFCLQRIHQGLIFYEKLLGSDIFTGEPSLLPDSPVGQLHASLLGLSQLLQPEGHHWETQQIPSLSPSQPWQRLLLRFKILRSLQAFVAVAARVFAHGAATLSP
T3 sequence 2: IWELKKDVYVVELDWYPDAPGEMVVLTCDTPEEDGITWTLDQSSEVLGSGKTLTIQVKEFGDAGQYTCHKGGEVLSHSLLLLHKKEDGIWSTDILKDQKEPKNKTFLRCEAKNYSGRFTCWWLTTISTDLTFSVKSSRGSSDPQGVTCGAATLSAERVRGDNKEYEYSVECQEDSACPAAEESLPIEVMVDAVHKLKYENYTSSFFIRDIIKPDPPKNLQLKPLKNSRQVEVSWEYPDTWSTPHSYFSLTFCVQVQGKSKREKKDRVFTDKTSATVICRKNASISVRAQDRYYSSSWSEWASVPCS
The experiment is described as follows: cell-based or functional assay.

Experiment [5] concerns the target T2, recombinant cynomolgous IL-23. Nature of the experiment: cell-based or functional assay.
The target of experiment [6] is T1, recombinant human IL-23. The experiment is described as follows: KinExA. (Kinetic exclusion samples the free partner from a solution-phase mixture.)
Experiment [7] deals with T1, recombinant human IL-23. Nature of the experiment: KinExA, solution equilibrium, rhuIL-23-coated beads.
Method: Normal human serum (NHS)-activated Sepharose 4 fast flow beads (Amersham Biosciences, part of GE Healthcare, Uppsala, Sweden), are pre-coated with rhuIL-23 and blocked with 1 m Tris buffer with 10 mg/mL BSA. 50 pM of IL-23 antibody is incubated with rhuIL-23 (12 points of 1:2 dilutions starting from 800 pM) at room temperature for 72 hours before it is run through the rhuIL-23-coated Sepharose beads. The amount of the bead-bound antibody was quantified by fluorescent (Cy5) labeled goat anti-human-Fc antibody (Jackson Immuno Research, West Grove, Pa.). The binding signal is proportional to the amount of free antibody at equilibrium.
Experiment [8] concerns the target T1, recombinant human IL-23. The experiment is described as follows: cell-based or functional assay. This is another data set of the same source.
Experiment [9] has as its target T2, recombinant cynomolgous IL-23. The experiment is described as follows: cell-based or functional assay.
For experiment [10], the target named is T1, recombinant human IL-23. Nature of the experiment: KinExA, derived from KD=Koff/Kon.
For experiment [11], the target named is T3, Native human IL-23. The experiment is described as follows: cell-based or functional assay. This is another data set of the same source.
For experiment [12], the target named is T2, recombinant cynomolgous IL-23. The experiment is described as follows: cell-based or functional assay.

What is called kon is the rate constant with which the complex forms. Broadly, the Kd is the free concentration of one partner at which half of the binding sites on the other are occupied at equilibrium, for simple one-to-one binding. By koff is commonly meant the first-order rate constant of dissociation.

B1: Antibody A (antibody, V domains shown)
VH: QVQLQESGPGLVKPSQTLSLTCTVSGGSISSGGYYWSWIRQHPGKGLEWIGYIYYSGSTYYNPSLKSRVTMSVDTSKNQFSLKLSSVTAADTAVYYCAKNRGFYYGMDVWGQGTTVTVSS
VL: DIQLTQSPSSVSASVGDRVTITCRASQVISSWFAWYQQKPGKAPNLLIYAASSLQSGVPSRFSGSGSGTDFTLTISSLQPADFATYFCQQANSFPFTFGPGTKVDVK
As for B1, the “IC50 (pM), NK cell assay (IFNγ)” value in experiment [1] is 42 pM; in experiment [2] it was 31 pM. Besides, the entries for the “IC50 (pM), STAT-luciferase assay” value in experiment [3], in experiment [4] and in experiment [5] were 190 pM, 114 pM and 379 pM, respectively.

B2: Antibody H (antibody, V domains shown)
VH: QVQLQESGPGLVKPSQTLSLTCTVSGGSISSGGYYWTWIRQHPGKGLEWIGYIYYSGNTYYNPSLKSRITISVDTSKNQFSLSLSSVTAADTAVYYCARNRGYYYGMDVWGQGTTVTVSS
VL: DIQMTQSPSSVSASVGDRVTITCRASQGFSGWLAWYQQKPGKAPKLLIYAASSLQSGVPSRFSGSGSGTDFTLTISSLQPEDFATYYCQQANSFPFTFGPGTKVDIK
As to B2, the “IC50 (pM), NK cell assay (IFNγ)” value in [1] was 29 pM; in experiment [2], 33 pM. The “IC50 (pM), STAT-luciferase assay” value in experiment [3] was 253 pM; in [4], 192 pM; in [5], 1024 pM.

B3: Antibody C (antibody, V domains shown)
VH: QVQLQESGPGLVKPSQTLSLTCTVSGGSINSGGYYWSWIRQHPGKGLEWIGYIYYSGSSYYNPSLKSRVTISVDTSQNQFSLKLSSVTAADTAVYYCARDRGHYYGMDVWGQGTTVTVSS
VL: DIQMTQSPSSVSASVGDRVTITCRASQGSSSWFAWYQQKPGKAPKLLIYAASSLQSGVPSRFSGSGSGTDFTLTISSLQPEDFATYYCQQANSFPFTFGPGTKVDIK
notes: also called VH10/VL10
Take B3: the kon in experiment [6] was 1.36e+06 M⁻¹ s⁻¹. Moreover, the “IC50 (pM), NK cell assay (IFNγ)” value was 32 pM in experiment [1] and 29 pM in experiment [2]. Besides, in experiment [7], the Kd was 2.56 pM. Moreover, the “IC50 (pM), IFNγ human whole blood assay” value came to 97 pM in experiment [8] and 186 pM in [9]. Moreover, the koff in experiment [10] came out at 4.1e-06 s⁻¹. For the same molecule, the “IC50 (pM), STAT-luciferase assay” value in experiment [3] is 211 pM; in [4], 107 pM; in experiment [5] it was 376 pM.

B4: Antibody K (antibody, V domains shown)
VH: EVQLVESGGGLVQPGGSLRLSCVVSGFTFSSFSMNWVRQAPGKGLEWVSYISSRSSTIYYADSVKGRFTISRDNAKNSLYLQMNSLRDEDTAVYYCARRIAAAGPWGYYYAMDVWGQGTTVTVSS
VL: QPELTQPPSASASLGASVTLTCTLSSGYSDYKVDWYQLRPGKGPRFVMRVGTGGTVGSKGEGIPDRFSVLGSGLNRSLTIKNIQEEDESDYHCGADHGSGSNFVYVFGTGTKVTVL
Consider B4, for which the “IC50 (pM), NK cell assay (IFNγ)” value in experiment [1] turned out to be 7 pM; in experiment [2] it was 8 pM. Further, the “IC50 (pM), STAT-luciferase assay” value in experiment [3] worked out at 43 pM; in [4], 71 pM; in experiment [5], 61 pM.

B5: Antibody M (antibody, V domains shown)
VH: EVQLVESGGGLVQPGGSLRLSCAASGFTFSSYSMNWVRQAPGKGLEWVSYISSRSSTIYIADSVKGRFTISRDNAKNSLYLQMNSLRDEDTAVYYCARRIAAAGGFHYYYALDVWGQGTTVTVSS
VL: QPVLTQPPSASASLGASVTLTCTLNSGYSDYKVDWYQQRPGKGPRFVMRVGTGGIVGSKGDGIPDRFSVLGSGLNRYLTIKNIQEEDESDYHCGADHGSGSNFVYVFGTGTKVTVL
Turning to B5, the “IC50 (pM), NK cell assay (IFNγ)” value in [1] came to 8 pM; in experiment [2], 12 pM. Besides, the entries for the “IC50 (pM), STAT-luciferase assay” value in experiment [3], in [4] and in experiment [5] were 40 pM, 34 pM and 56 pM, respectively.

B6: Antibody N (antibody, V domains shown)
VH: EVQLVESGGGLVQPGGSLRLSCAASGFTFSTYSMNWVRQAPGKGLEWVSYISSSSSTRYHADSVKGRFTISRDNAKNSLYLQMNSLRDEDTAVYYCARRIAAAGPWGYYYAMDVWGQGTTVTVSS
VL: QPVLTQPPSASASLGASVTLTCTLSSGYSDYKVDWYQQRPGKGPRFVMRVGTGGIVGSKGEGIPDRFSVLGSGLNRYLTIKNIQEEDESDYHCGADHGSGNNFVYVFGTGTKVTVL
For the molecule B6, the “IC50 (pM), STAT-luciferase assay” value in [3] is 145 pM; in experiment [4], 361 pM; in experiment [5], 238 pM.

B7: Antibody E (antibody, V domains shown)
VH: QVQLVESGGGVVQPGRSLRLSCAASGFTFSSYGMHWVRQAPGKGLEWVAVIWYDGSNEYYADSVKGRFTISRDNSKNTLYLQMNSLRAEDTAVYYCARDRGYTSSWYPDAFDIWGQGTMVTVSS
VL: QSVLTQPPSVSGAPGQRVTISCTGSSSNTGAGYDVHWYQQVPGTAPKLLIYGSGNRPSGVPDRFSGSKSGTSASLAITGLQAEDEADYYCQSYDSSLSGWVFGGGTRLTVL
Regarding B7, the “IC50 (pM), NK cell assay (IFNγ)” value in [11] came to 158 pM; in [2] it was 21 pM. In addition, in experiment [12], the “IC50 (pM), IL-22 human whole blood assay” value turned out to be 56 pM. In addition, the “IC50 (pM), IFNγ human whole blood assay” value in experiment [9] was 54 pM. Besides, the figures for the “IC50 (pM), STAT-luciferase assay” value in experiment [4] and in [5] were 140 pM and 188 pM, respectively.

B8: Antibody J (antibody, V domains shown)
VH: QVQLVESGGGVVQPGRSLRLSCAASGFTFSSYGMHWVRQAPGKGLEWVAVISFDGSLKYYADSVKGRFTISRDNSKNTLYLQMNSLRAEDTAVYYCARERTTLSGSYFDYWGQGTLVTVSS
VL: QAVLTQPSSLSASPGASASLTCTLRSGINVGTYRIYWYQQKPGSPPQYLLRYKSDSDKQQGSGVPSRFSGSKDASANAGILLISGLQSEDEADYYCMIWHSSASVFGGGTKLTVL
On to B8, for which the “IC50 (pM), NK cell assay (IFNγ)” value was found to be 4 pM in experiment [1] and 5 pM in [2]. Also, the “IC50 (pM), STAT-luciferase assay” value turned out to be 36 pM in [3], 83 pM in [4] and 56 pM in experiment [5].

B9: Antibody L (antibody, V domains shown)
VH: QVQLVESGGGVVQPGRSLRLSCAASGFTFSSYAMHWVRQAPGKGLEWLSVISHDGSIKYYADSVKGRFTISRDNSKNTLYLQMNSLRAEDTAVYYCARERTTLSGSYFDYWGQGTLVTVSS
VL: QAVLTQPSSLSASPGASASLTCTLRSGINVGTYRIYWYQQKPGSPPQYLLRYKSDSDKQQGSGVPSRFSGSKDASANAGILLISGLQSEDEADYYCMIWHSSASVFGGGTKLTVL
notes: also called VH4/VL4
Regarding B9, in [6], the kon turned out to be 3.34e+06 M⁻¹ s⁻¹. The “IC50 (pM), NK cell assay (IFNγ)” value stood at 3 pM in [1] and 4 pM in experiment [2]. In experiment [7], the dissociation constant Kd worked out at 1.08 pM. In addition, in experiment [10], the koff was 3.7e-06 s⁻¹. Further, the “IC50 (pM), STAT-luciferase assay” value in [3] was determined as 23 pM; in experiment [4], 113 pM; in experiment [5], 47 pM.

B10: Antibody I (antibody, V domains shown)
VH: QVQLQESGPGLVKPSETLSLTCTVSGGSISTYYWSWIRQPAGKGLEWIGLIYTSGSTNYNPSLKSRVTMSLDTSKNQFSLRLTSVTAADTAVYYCARDRGYYYGVDVWGQGTTVTVSS
VL: DIQLTPSPSSVSASVGDRVTITCRASQGIAGWLAWYQQKPGKAPKLLIYAASSLQSGVPSRFSGSGSGTDFTLTISSLQPEDFATYYCQQADSFPPTFGGGTKVEIK
Regarding B10, the “IC50 (pM), NK cell assay (IFNγ)” value in experiment [1] is 69 pM; in experiment [2], 52 pM. The “IC50 (pM), STAT-luciferase assay” value amounted to 338 pM in [3], 208 pM in experiment [4] and 650 pM in [5].
